Kd and IC50 data for 23 sequences are collected here from the Immune Epitope Database (IEDB).

Assay [1] has as its target HLA-B*51:01. Put plainly: IEDB peptide-MHC binding, purified MHC/competitive/radioactivity; filed as Kd, often an IC50 or EC50 that approximates it; ≥ and ≤ were set here for values at or beyond the usual limits of such assays.
For assay [2], the target named is HLA-B*35:01. The assay is described as above.
Assay [3] addresses HLA-B*53:01. Described as above.
Assay [4] addresses HLA-B*54:01. Described as above.
Assay [5] addresses HLA-B*07:02. The assay is described as above.
Assay [6] has as its target HLA-B*15:17. Put plainly: IEDB peptide-MHC binding, purified MHC/direct/fluorescence; filed as Kd, often an IC50 or EC50 that approximates it; ≥ and ≤ were set here for values at or beyond the usual limits of such assays. As to conditions: source organism: Mammarenavirus lassaense.
The target in assay [7] is HLA-B*58:01. The assay is described as above.
The target in assay [8] is HLA-B*57:01. The description is as above. As to conditions: source organism: Mammarenavirus lassaense.
In assay [9] the target is HLA-B*40:01. The assay is described as above.
The target of assay [10] is HLA-B*08:01. Described as above.
Assay [11] concerns the target HLA-A*11:01. The description is as above.
The target in assay [12] is HLA-B*15:01. Described as above.
For assay [13], the target named is HLA-B*07:02. The description is as above.
Assay [14] has as its target HLA-B*44:02. The assay is described as above.
In assay [15] the target is HLA-B*27:05. The description is as above.
The target of assay [16] is HLA-A*03:01. Described as above.
The target in assay [17] is HLA-A*31:01. The description is as above.
Assay [18] concerns the target HLA-A*24:03. The description is as above.
For assay [19], the target named is HLA-A*69:01. The assay is described as above.
Assay [20] has as its target HLA-A*02:01. The description is as above.
Assay [21] has as its target HLA-A*01:01. The assay is described as above.
Assay [22] deals with HLA-A*26:01. The assay is described as above.
Assay [23] deals with HLA-A*11:01. Put plainly: IEDB peptide-MHC binding, purified MHC/competitive/fluorescence; ≥ and ≤ were set here for values at or beyond the usual limits of such assays.
Assay [24] has as its target HLA-A*24:02. The description is as above.
Assay [25] addresses HLA-A*02:01. The assay is described as above. Particulars: source organism: Zaire ebolavirus.
In assay [26] the target is HLA-A*30:01. Put plainly: IEDB peptide-MHC binding, purified MHC/competitive/radioactivity; filed as Kd, often an IC50 or EC50 that approximates it; ≥ and ≤ were set here for values at or beyond the usual limits of such assays. As to conditions: source organism: Dengue virus 1 Brazil/97-11/1997.
Assay [27] addresses HLA-B*15:01. Described as above. Particulars: source organism: Dengue virus 1 Brazil/97-11/1997.
Assay [28] addresses HLA-A*30:02. The description is as above. As to conditions: source organism: Dengue virus 1 Brazil/97-11/1997.
Assay [29] concerns the target HLA-A*01:01. The assay is described as above. As to conditions: source organism: Dengue virus 1 Brazil/97-11/1997.
Assay [30] deals with HLA-A*26:01. The assay is described as above. Particulars: source organism: Dengue virus 1 Brazil/97-11/1997.
The mark [31] stands for this setting: source organism: Mammarenavirus juninense.
The mark [32] stands for this setting: source organism: Mammarenavirus lassaense.
Where [33] appears, read: source organism: Triticum aestivum.
Setting [34] is: source organism: Vaccinia virus WR.
Setting [35] is: source organism: Dengue virus 3 Martinique/1243/1999.
Setting [36] is: source organism: Vibrio vulnificus.
Where [37] appears, read: source organism: Zaire ebolavirus.
The mark [38] stands for this setting: source organism: Salmonella enterica.
Where [39] appears, read: source organism: Salmonella enterica subsp. enterica serovar Typhi.
The mark [40] stands for this setting: source organism: Vaccinia virus.
The mark [41] stands for this setting: source organism: SARS coronavirus Tor2.

As to HPDMDSLMI, the Kd in assay [1] (setting [31]) is 2900 nM; in [2] (setting [31]) it was 2010 nM; in assay [3] (setting [31]), 79.6 nM; in assay [4] (setting [31]), not below 23200 nM; in assay [5] (setting [31]), 1720 nM.

FPAGLTYSQL: the Kd in [1] (setting [32]) was found to be 8280 nM; in assay [2] (setting [32]), 115 nM; in assay [3] (setting [32]), 111 nM; in [4] (setting [32]), 603 nM; in assay [5] (setting [32]) it was 155 nM.

For LPAMCNVYI, the Kd in [1] (setting [33]) came out at 272 nM; in [2] (setting [33]), 1100 nM; in assay [3] (setting [33]), 18.2 nM; in [4] (setting [33]) it was 182 nM; in assay [5] (setting [33]) it was 685 nM.

Take QPLSQVSF: the equilibrium dissociation constant (Kd) in [1] (setting [33]) was 12600 nM; in assay [2] (setting [33]) it was 15000 nM; in assay [3] (setting [33]), not below 37500 nM; in [4] (setting [33]) it was not below 87700 nM; in [5] (setting [33]), 6870 nM.

On to LPESDLDKVY, for which the Kd is not below 54100 nM in [1] (setting [34]); 79 nM in assay [2] (setting [34]); 513 nM in assay [3] (setting [34]); 10600 nM in assay [4] (setting [34]); not below 69600 nM in [5] (setting [34]).

For the sequence QPYLQLQPFL, the Kd in [1] (setting [33]) is 150 nM; in assay [2] (setting [33]), 369 nM; in [3] (setting [33]), not below 22000 nM; in assay [4] (setting [33]), not below 23400 nM; in assay [5] (setting [33]) it was 632 nM.

With KSFLWTQSL, the dissociation constant (Kd) in assay [6] was not above 1 nM; in assay [7] (setting [32]), 42 nM; in assay [8] it was 29 nM.

On to LPYPQPQL, for which the dissociation constant Kd worked out at 32.3 nM in assay [1] (setting [33]); 10600 nM in [2] (setting [33]); 14900 nM in [3] (setting [33]); 1390 nM in assay [4] (setting [33]); 109 nM in assay [5] (setting [33]).

For MPVTAASAAQ, the values for the dissociation constant (Kd) in [1] (setting [35]) and in assay [2] (setting [35]) were not below 20500 nM and 1590 nM, respectively.

Consider STDTRHIPQ, for which the Kd in [9] (setting [36]), in [10] (setting [36]), in assay [11] (setting [36]), in assay [12] (setting [36]), in assay [13] (setting [36]) and in [14] (setting [36]) was not below 20000 nM in each case. Moreover, the Kd in assay [15] (setting [36]), in assay [16] (setting [36]), in assay [17] (setting [36]), in assay [18] (setting [36]), in assay [19] (setting [36]) and in [20] (setting [36]) was not below 20000 nM each time. Moreover, the Kd in [7] (setting [36]) is not below 20000 nM; in assay [21] (setting [36]) it was 4410 nM; in assay [22] (setting [36]), not below 20000 nM.

On to KPVSDLYTSM, for which the Kd in assay [1] (setting [34]) is not below 69600 nM; in [2] (setting [34]), 34.9 nM; in [3] (setting [34]), 56.6 nM; in assay [4] (setting [34]) it was 10700 nM; in assay [5] (setting [34]), 0.297 nM.

In the case of IIHDFVDKT, the figures for the IC50 in assay [23] (setting [37]), in assay [24] (setting [37]) and in assay [25] were not below 148000 nM, not below 287000 nM and 14100 nM, respectively.

For YPSMFTLRHI, the dissociation constant Kd in [1] (setting [34]) is 2.58 nM; in [2] (setting [34]) it was 446 nM; in assay [3] (setting [34]), 0.943 nM; in assay [4] (setting [34]), 20.8 nM; in [5] (setting [34]), 15.5 nM.

Consider PSVIEEWKK, for which the half-maximal inhibitory concentration (IC50) in assay [23] (setting [34]) is not below 107000 nM.

Take QTDDGVRFT: the Kd in assay [9] (setting [38]), in assay [10] (setting [38]), in assay [11] (setting [38]), in assay [12] (setting [38]), in [13] (setting [38]) and in assay [14] (setting [38]) was not below 20000 nM in each case. The Kd was not below 20000 nM in [15] (setting [38]); not below 20000 nM in [16] (setting [38]); not below 20000 nM in assay [17] (setting [38]); not below 20000 nM in assay [18] (setting [38]); 70.3 nM in assay [19] (setting [39]); not below 20000 nM in assay [20] (setting [38]). Further, the Kd is not below 20000 nM in assay [7] (setting [38]), 19800 nM in assay [21] (setting [39]) and not below 20000 nM in assay [22] (setting [38]).

In assay [23] (setting [37]), TNTTTEDHK had a half-maximal inhibitory concentration (IC50) not below 110000 nM.

Regarding TTAAGPPKA, the concentration for half-maximal inhibition (IC50) in [23] (setting [37]) came to 40600 nM; in [25] it was 11700 nM.

For the sequence EKSSKYYIK, the IC50 was not below 79000 nM in [23] (setting [40]) and not below 145000 nM in [24] (setting [40]).

For the sequence FPAIFSAEV, the Kd in [1] (setting [32]) was determined as 85.6 nM; in [2] (setting [32]) it was 16.8 nM; in assay [3] (setting [32]), 40.4 nM; in assay [4] (setting [32]), 6.94 nM; in assay [5] (setting [32]), 65.3 nM.

For the sequence YPDLNFDNTY, the Kd in assay [1] (setting [34]) is not below 69600 nM; in [2] (setting [34]) it was 18.4 nM; in assay [3] (setting [34]), 22.2 nM; in assay [4] (setting [34]), 1750 nM; in [5] (setting [34]) it was not below 69600 nM.

Turning to FTMAHRKPTY, the dissociation constant Kd in [2] (source organism: Dengue virus 1 Brazil/97-11/1997) is 698 nM; in [26], 2270 nM; in [27], 313 nM; in [28], 744 nM; in assay [29] it was 9160 nM; in assay [30], 476 nM.

MPNMLRIMA: the Kd worked out at 393 nM in [1] (setting [41]); 11.7 nM in assay [2] (setting [41]); 27 nM in assay [3] (setting [41]); 0.256 nM in [4] (setting [41]); 9.8 nM in assay [5] (setting [41]).

In the case of SPEGEETII, the equilibrium dissociation constant (Kd) in assay [1] (setting [34]) was 15900 nM; in assay [2] (setting [34]), not below 40600 nM; in assay [3] (setting [34]) it was 270 nM; in assay [4] (setting [34]), not below 78100 nM; in [5] (setting [34]), 11100 nM.

For orientation: Kd means the equilibrium constant for the complex coming apart. The IC50 is the midpoint of a concentration-inhibition curve.
